# Patent publication EP0311107A2, “Anti-HIV active 3'-fluoro-purine-2',3'-dideoxyribosides” (priority 1987, dated 1989)
# B1: beef intestine adenosine deaminase (ADA) (Bos taurus) (protein)
# chain: MAQTPAFNKPKVELHVHLDGAIKPETILYYGRKRGIALPADTPEELQNIIGMDKPLSLPEFLAKFDYYMPAIAGCREAVKRIAYEFVEMKAKDGVVYVEVRYSPHLLANSKVEPIPWNQAEGDLTPDEVVSLVNQGLQEGERDFGVKVRSILCCMRHQPSWSSEVVELCKKYREQTVVAIDLAGDETIEGSSLFPGHVKAYAEAVKSGVHRTVHAGEVGSANVVKEAVDTLKTERLGHGYHTLEDATLYNRLRQENMHFEVCPWSSYLTGAWKPDTEHPVVRFKNDQVNYSLNTDDPLIFKSTLDTDYQMTKNEMGFTEEEFKRLNINAAKSSFLPEDEKKELLDLLYKAYGMPSPASAEQCL
# notes: Kinetic properties of beef intestine adenosine deaminase for 2,6-diaminopurine 2′,3′-dideoxynucleoside analogues; purchased Boehringer Mannheim, Mannheim, West Germany; host or cells: beef intestine (tissue-derived enzyme)
# Tests used:
# [1] = substrate: Nc1nc(N)c2ncn([C@H]3C[C@@H](O)[C@@H](CO)O3)c2n1; test: Substrate kinetics for deamination by adenosine deaminase; assay type: biochemical; conditions: other: beef intestine adenosine deaminase
# Excerpt: (§1) All four ddDAPR analogues were examined for their sus­ceptibility to deamination by beef intestine adenosine de­ aminase (ADA).
# [2] = substrate: Nc1nc(N)c2ncn([C@H]3C[C@H](F)[C@@H](CO)O3)c2n1; test: as above; assay type: biochemical; conditions: other: beef intestine adenosine deaminase
# Excerpt: as §1
protein,measurement,setting,value
B1,Km,[1],74 µM
same,Km,[2],148 µM
same,Vmax,[2],31 µmole/mg protein/min
